Test results taken from paper PMC12074421, “Development and Characterization of pFluor50, a Fluorogenic-Based Kinetic Assay System for High-Throughput Inhibition Screening and Characterization of Time-Dependent Inhibition and Inhibition Type for Six Human CYPs” (Molecules, 2025).
“And” between values parts separate entries of the source, which are not always exact repeats. Equal values may be shown once.

Legend:
[1] = target: T1, CYP2C19 (Homo sapiens, UniProt P33261); assay: pFluor50 Michaelis–Menten kinetics, CYP2C19 with 3OMF; format: in vitro ADME
T1 construct: purchased Sigma Aldrich (CYPexpress, Oxford Biomedical Research, Inc.) MTOXCE2C19
Protocol: (§1) In general, the protocol for determination of the Michaelis–Menten kinetic parameters (KM and Vmax) involved addition of the appropriate master mix to phosphate buffer followed by addition of the appropriate amount of enzyme to the mix. The master mix was determined for each specific CPY450 based on empirical methods involving each reagent to obtain a linear range of enzyme activity. A total of 30 µL of this enzyme mix was then added to each well of the 384-well plate. Next, initial background readings were taken for 5 min, after which the appropriate amount of substrate was dispensed into each well using the onboard reagent dispenser of the plate reader. All plates contained one blank well without enzyme (only master mix) for each substrate concentration. […] Table 1 provides the formulation of the master mix for each CYP, the kinetic read time with substrate, the read time interval, the concentration range of the substrate used for the Michaelis–Menten kinetics, the Ex and Em wavelengths, and the concentration of substrate for inhibition/activation screening. Table S1 details the specific parameters used for the plate reader for each CYP–substrate pair.
(§2) For determining the Michaelis–Menten kinetic parameters (KM and Vmax) for each CYP–substrate pair, kinetic studies were performed in which a range of different concentrations of the substrate were used. Table 1 details the formulations for the master mix, CYPexpress^TM concentrations, and concentration ranges of each specific substrate. For each CYP–substrate pair, plate reader parameters were set up as described in Table S1. […] Briefly, the working solution was prepared for each substrate and then primed into one of the dispensers on the plate reader. […] The amount of CYPexpress reagent in units/(mg/mL) was determined for each enzyme as new lots may have slightly different activities, and the activity of the reagent may change over time. The appropriate mass of each CYPexpress^TM reagent needed to obtain the required units was measured using an analytical balance and was transferred to the master mix solution. […]

[2] = target: CYP2D6 (Homo sapiens, UniProt P10635); assay: pFluor50 Michaelis–Menten kinetics, CYP2D6 with Eres; format: in vitro ADME; design: purchased Sigma Aldrich (CYPexpress, Oxford Biomedical Research, Inc.) MTOXCE2D6
Protocol: as §1, with “reader.” for “reader. All plates contained one blank well without enzyme (only master mix) for each substrate concentration.”
For determining the Michaelis–Menten kinetic parameters (KM and Vmax) for each CYP–substrate pair, kinetic studies were performed in which a range of different concentrations of the substrate were used. […] For each CYP–substrate pair, plate reader parameters were set up as described in Table S1. […]

[3] = target: CYP2C9 (Homo sapiens, UniProt P11712); assay: pFluor50 Michaelis–Menten kinetics, CYP2C9 with Eres; format: in vitro ADME; design: purchased Sigma Aldrich (CYPexpress, Oxford Biomedical Research, Inc.) MTOXCE2C9
Protocol: as §1, §2

[4] = substrate: CCOc1ccc2nc3ccc(=O)cc-3oc2c1; assay: pFluor50 Michaelis–Menten kinetics, CYP1A2 with Eres; format: in vitro ADME, human; settings: pH 7.4
Protocol: as §1
(§3) For determining the Michaelis–Menten kinetic parameters (KM and Vmax) for each CYP–substrate pair, kinetic studies were performed in which a range of different concentrations of the substrate were used. Table 1 details the formulations for the master mix, CYPexpress^TM concentrations, and concentration ranges of each specific substrate. For each CYP–substrate pair, plate reader parameters were set up as described in Table S1. The protocol used for Michaelis–Menten kinetics was similar for all the CYPs. Briefly, the working solution was prepared for each substrate and then primed into one of the dispensers on the plate reader. The other dispenser was primed with the buffer solution. 1.5 mL of phosphate buffer solution (pH 7.4) was used to prepare the master mix with the appropriate concentration of each reagent as specified in Table 1 (NADPH, NADP+, G6P, G6PDH, and/or MgCl2). The amount of CYPexpress reagent in units/(mg/mL) was determined for each enzyme as new lots may have slightly different activities, and the activity of the reagent may change over time. The appropriate mass of each CYPexpress^TM reagent needed to obtain the required units was measured using an analytical balance and was transferred to the master mix solution. This solution was mixed, and 30 µL of the solution was added to each well using a multichannel pipette. In each case, a blank control well was also included, as described in Figure S1. The plate was then transferred to the plate reader and readings were taken at the time intervals, for the appropriate length of time, and at the appropriate wavelengths as specified in Table 1.
(§4) Calibration curves were constructed using the determined plate reader settings (Figure S3) and concentrations of the products formed to allow for the calculation of product formation rates based on the observed fluorescence. For these calculations, we presumed that the total increase in observed fluorescence over time was due only to product formation. Calibration curves were generated with 6 different concentrations of the products (fluorescein and resorufin), which spanned the relative fluorescence units (RFU) observed during the kinetic experiments. This allowed for the calculation of product concentrations from the observed RFU, enabling the calculation of the product formation rates. Unfortunately, fluorescein benzyl ester (the product formed from the metabolism of dibenzyl fluorescein) is not commercially available. Therefore, the exact rate of formation could not be determined, and the Vmax for CYP3A4 cleavage of dibenzyl fluorescein has been reported as the rate of change in relative fluorescence units (RFUs) per minute.

[5] = substrate: CCOc1ccc2nc3ccc(=O)cc-3oc2c1; assay: pFluor50 Michaelis–Menten kinetics, CYP2C9 with Eres; format: in vitro ADME, human; settings: pH 7.4
Protocol: as §1, §2

[6] = substrate: COc1ccc2c(-c3ccccc3C(=O)O)c3ccc(=O)cc-3oc2c1; assay: pFluor50 Michaelis–Menten kinetics, CYP2C19 with 3OMF; format: in vitro ADME, human; settings: pH 7.4
Protocol: as §1
For determining the Michaelis–Menten kinetic parameters (KM and Vmax) for each CYP–substrate pair, kinetic studies were performed in which a range of different concentrations of the substrate were used. […] For each CYP–substrate pair, plate reader parameters were set up as described in Table S1. […] Briefly, the working solution was prepared for each substrate and then primed into one of the dispensers on the plate reader. […] The amount of CYPexpress reagent in units/(mg/mL) was determined for each enzyme as new lots may have slightly different activities, and the activity of the reagent may change over time. The appropriate mass of each CYPexpress^TM reagent needed to obtain the required units was measured using an analytical balance and was transferred to the master mix solution. […] The plate was then transferred to the plate reader and readings were taken at the time intervals, for the appropriate length of time, and at the appropriate wavelengths as specified in Table 1.
Calibration curves were constructed using the determined plate reader settings (Figure S3) and concentrations of the products formed to allow for the calculation of product formation rates based on the observed fluorescence. For these calculations, we presumed that the total increase in observed fluorescence over time was due only to product formation. Calibration curves were generated with 6 different concentrations of the products (fluorescein and resorufin), which spanned the relative fluorescence units (RFU) observed during the kinetic experiments. […]

[7] = substrate: CCOc1ccc2nc3ccc(=O)cc-3oc2c1; assay: pFluor50 Michaelis–Menten kinetics, CYP2D6 with Eres; format: in vitro ADME, human; settings: pH 7.4
Protocol: as §1
as §3, with “In each case, a blank control well was also included, as described in Figure S1.” left out
as §4, with “This allowed for the calculation of product concentrations from the observed RFU, enabling the calculation of the product formation rates. Unfortunately, fluorescein benzyl ester (the product formed from the metabolism of dibenzyl fluorescein) is not commercially available.” left out

[8] = other: CYP1A2 1 mg/mL, three biological replicates
[9] = other: CYP1A2, biological repeat 1
[10] = other: CYP1A2, biological repeat 2
[11] = other: CYP1A2, biological repeat 3
[12] = other: CYP2C19 2 mg/mL, three biological replicates
[13] = other: CYP2D6 1 mg/mL, three biological replicates

## COc1ccc2c(-c3ccccc3C(=O)O)c3ccc(=O)cc-3oc2c1 [3OMF, 2-(6-methoxy-3-oxo-3H-xanthen-9-yl)benzoic acid]
[1]; CYP2C19, biological repeat 1
  Vmax – repeat 1: 19.35 nmol/min
[1]; CYP2C19, biological repeat 2
  Vmax – repeat 2: 15.86 nmol/min
[1]; CYP2C19, biological repeat 3
  Vmax – repeat 3: 19.37 nmol/min

## CCOc1ccc2nc3ccc(=O)cc-3oc2c1 [Eres, 7-ethoxy-3H-phenoxazin-3-one]
[2]; CYP2D6, biological repeat 1
  Vmax – repeat 1: 1.22 nmol/min
[2]; CYP2D6, biological repeat 2
  Vmax – repeat 2: 0.72 nmol/min
[3]; CYP2C9, biological repeat 1
  Vmax – repeat 1: 0.40 nmol/min
[3]; CYP2C9, biological repeat 2
  Vmax – repeat 2: 0.39 nmol/min
[3]; CYP2C9, biological repeat 3
  Vmax – repeat 3: 0.49 nmol/min

B1: CYP1A2 (Homo sapiens) (protein)
chain: ALSQSVPFSATELLLASAIFCLVFWVLKGLRPRVPKGLKSPPEPWGWPLLGHVLTLGKNPHLALSRMSQRYGDVLQIRIGSTPVLVLSRLDTIRQALVRQGDDFKGRPDLYTSTLITDGQSLTFSTDSGPVWAARRRLAQNALNTFSIASDPASSSSCYLEEHVSKEAKALISRLQELMAGPGHFDPYNQVVVSVANVIGAMCFGQHFPESSDEMLSLVKNTHEFVETASSGNPLDFFPILRYLPNPALQRFKAFNQRFLWFLQKTVQEHYQDFDKNSVRDITGALFKHSKKGPRASGNLIPQEKIVNLVNDIFGAGFDTVTTAISWSLMYLVTKPEIQRKIQKELDTVIGRERRPRLSDRPQLPYLEAFILETFRHSSFLPFTIPHSTTRDTTLNGFYIPKKCCVFVNQWQVNHDPELWEDPSEFRPERFLTADGTAINKPLSEKMMLFGMGKRRCIGEVLAKWEIFLFLAILLQQLEFSVPPGVKVDLTPIYGLTMKHARCEHVQARLRFSIN
notes: purchased Sigma Aldrich (CYPexpress, Oxford Biomedical Research, Inc.) MTOXCE1A2
[4]; [8]
  Km: 0.35 ± 0.1 µM
  Vmax: 1.61 nmol/min
[4]; [9]
  Km: 0.33 µM
  Vmax: 1.64 nmol/min
[4]; [10]
  Km: 0.225 µM
  Vmax: 1.38 nmol/min
[4]; [11]
  Km: 0.47 µM
  Vmax: 1.82 nmol/min

B2: CYP2C9 (Homo sapiens) (protein)
chain: MDSLVVLVLCLSCLLLLSLWRQSSGRGKLPPGPTPLPVIGNILQIGIKDISKSLTNLSKVYGPVFTLYFGLKPIVVLHGYEAVKEALIDLGEEFSGRGIFPLAERANRGFGIVFSNGKKWKEIRRFSLMTLRNFGMGKRSIEDRVQEEARCLVEELRKTKASPCDPTFILGCAPCNVICSIIFHKRFDYKDQQFLNLMEKLNENIKILSSPWIQICNNFSPIIDYFPGTHNKLLKNVAFMKSYILEKVKEHQESMDMNNPQDFIDCFLMKMEKEKHNQPSEFTIESLENTAVDLFGAGTETTSTTLRYALLLLLKHPEVTAKVQEEIERVIGRNRSPCMQDRSHMPYTDAVVHEVQRYIDLLPTSLPHAVTCDIKFRNYLIPKGTTILISLTSVLHDNKEFPNPEMFDPHHFLDEGGNFKKSKYFMPFSAGKRICVGEALAGMELFLFLTSILQNFNLKSLVDPKNLDTTPVVNGFASVPPFYQLCFIPV
notes: purchased Sigma Aldrich (CYPexpress, Oxford Biomedical Research, Inc.) MTOXCE2C9
[5]; other: CYP2C9, biological repeat 1
  Km: 0.46 µM
[5]; other: CYP2C9, biological repeat 2
  Km: 0.52 µM
[5]; other: CYP2C9, biological repeat 3
  Km: 0.39 µM

B3: CYP2C19 (Homo sapiens) (protein)
chain: MDPFVVLVLCLSCLLLLSIWRQSSGRGKLPPGPTPLPVIGNILQIDIKDVSKSLTNLSKIYGPVFTLYFGLERMVVLHGYEVVKEALIDLGEEFSGRGHFPLAERANRGFGIVFSNGKRWKEIRRFSLMTLRNFGMGKRSIEDRVQEEARCLVEELRKTKASPCDPTFILGCAPCNVICSIIFQKRFDYKDQQFLNLMEKLNENIRIVSTPWIQICNNFPTIIDYFPGTHNKLLKNLAFMESDILEKVKEHQESMDINNPRDFIDCFLIKMEKEKQNQQSEFTIENLVITAADLLGAGTETTSTTLRYALLLLLKHPEVTAKVQEEIERVIGRNRSPCMQDRGHMPYTDAVVHEVQRYIDLIPTSLPHAVTCDVKFRNYLIPKGTTILTSLTSVLHDNKEFPNPEMFDPRHFLDEGGNFKKSNYFMPFSAGKRICVGEGLARMELFLFLTFILQNFNLKSLIDPKDLDTTPVVNGFASVPPFYQLCFIPV
notes: purchased Sigma Aldrich (CYPexpress, Oxford Biomedical Research, Inc.) MTOXCE2C19
[6]; [12]
  Km: 2.3 ± 0.8 µM and 2.31 ± 0.8 µM
  Vmax: 0.0182 µmol/min
[6]; other: CYP2C19, biological repeat 1
  Km: 3.19 µM
[6]; other: CYP2C19, biological repeat 2
  Km: 1.42 µM

B4: CYP2D6 (Homo sapiens) (protein)
chain: MGLEALVPLAVIVAIFLLLVDLMHRRQRWAARYPPGPLPLPGLGNLLHVDFQNTPYCFDQLRRRFGDVFSLQLAWTPVVVLNGLAAVREALVTHGEDTADRPPVPITQILGFGPRSQGVFLARYGPAWREQRRFSVSTLRNLGLGKKSLEQWVTEEAACLCAAFANHSGRPFRPNGLLDKAVSNVIASLTCGRRFEYDDPRFLRLLDLAQEGLKEESGFLREVLNAVPVLLHIPALAGKVLRFQKAFLTQLDELLTEHRMTWDPAQPPRDLTEAFLAEMEKAKGNPESSFNDENLRIVVADLFSAGMVTTSTTLAWGLLLMILHPDVQRRVQQEIDDVIGQVRRPEMGDQAHMPYTTAVIHEVQRFGDIVPLGVTHMTSRDIEVQGFRIPKGTTLITNLSSVLKDEAVWEKPFRFHPEHFLDAQGHFVKPEAFLPFSAGRRACLGEPLARMELFLFFTSLLQHFSFSVPTGQPRPSHHGVFAFLVSPSPYELCAVPR
notes: purchased Sigma Aldrich (CYPexpress, Oxford Biomedical Research, Inc.) MTOXCE2D6
[7]; [13]
  Km: 1.63 ± 0.7 µM
  Vmax: 0.00093 µmol/min
[7]; other: CYP2D6, biological repeat 1
  Km: 2.43 µM
[7]; other: CYP2D6, biological repeat 2
  Km: 0.89 µM
[7]; other: CYP2D6, biological repeat 3
  Km: 1.57 µM
